Experiment: label from the status in PepcDB records
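Further: failed if final PepcDB status was selected cloned or expressed and not failed if soluble or beyond.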

| Sequence | protein production |
| --- | --- |
| MNQKISPPSQKLDGLFLLALSMAVFFVGVTEFMLSSMLGPLAQAFHTTTSGAAWLISSYAFSYAIAAPLLGYFSDRMQRRKLLLLALVLFAVDTLAIVIAPTLEIAVVLRVIGGIASAIIIPTTFALVAEVVAPQRQAGAMGQVMLGMTLGIAAGPALAGLLSDFFGWAAPFLLVSCGCVLVFLMARQRLPVQAVAPRAEGHALGWCRQWSILRPLIAKGAWNGTGVAGLLLSGEVLRQRYGFSTAQIGVSIAAFGVGLAVGNLAAGYLRRYLKRDEDMLLLVLALLVLSMSTFMLLPLPLPVALCCLGAWGAALGLGAPAGTVVLASRSGPDKGMVLSFAETFNNIAILASVPLAVRLLELKGPPATLWVLGIGLGIGAWFTVLDWFASRRSNEALPLRD | failed |
| MTIIKYIKFVVIIVIVTIVFSCSKNEAGNSEYDPSLPISLTDFFPIQGGMATRMVIEGANFGTDLSQIKVFFNQKEASILNVKNSIIYLLVPKLPGNDCIVTVKVGNQEARFTRNFQYIENYSVTTIAGQPGTNLFVEGTLAAAQFGPVQHLAIDDENNLFITERNGSDGKGTCSVLNEESGTVTFLFKASDNLNVPTVNAQTQNVYIPLDGGYTFYELNPVNQWIAKSRLVLHPSKEQQEAGMDDFEINWKHSLAFSRYDNMIYTRSYGGDLIKVDPETRVGQKIGNFFPNTDSFIVAHPTQPEILYIAYAAKHVIYTYNIETGEHKLFAGAFGQSGWNDGIATDAEFNSPRQMSLDMEGNIYIADSGNHCIRMIDKNGIVTTPIGQPGEAGYADGSPDMALLNDPRGVAVNSEGDVYIADLGNRCIRKLTLQLEHHHHHH | failed |
| MHIHILGICGTFMGGIAAIARNAGHTVTGCDANVYPPMSDQLRALGIELTEGWDAGQVRLEPDAFVVGNVVTRGNPLMEAILERGLPYTSGPQWLADNVLRDKWVLAVAGTHGKTTTSAMLAWILEDARLHPGFLVGGIPQNFGLSARLTDSPFFVIEADEYDTAFFDKRSKFVHYRPRTAILNNLEFDHADIFPDIQAIETQFHHLVRTIPGNGLIVANGREAALDRVLERGLWTPVERFGSIGGWTAGEADASGSFDVHFNSALQGRVRWELIGEHNRMNALAAIAAARHAGVPAAAAIDALSRFENVKRRMEIRGAVHGITVYDDFAHHPTAITTTVQGLRAKVGNARILAVLEPRSNTMKLGVMKDALPASLAGADEVYCYGANLGWDAAEALAPLGEKARVFDNLDKLVAQLVADGRPGDHVLMMSNGGFGGIHAKLLDALHHHYHEEIVLTPMHRYGGYA | failed |
| GAPGPCGLARQNSTSLTGKPGALPANLDDMKVAELKQELKLRSLPVSGTKTELIERLRAYQDQISPVPGAPKAPAATSILHKAGEVVVAFPAARLST | failed |
| TPEHRAVAREVAAETFVLLKNENHLLPLEEKGKIALIGPMADARNNMCGMWSMTCTPSRHGTLLEGIRSAVGDKAEILYAKGSNVYYDAEMEKGAVGIRPLERGNDQQLLAEALRTAARADVIVAAVGECAEMSGESPSRTNLEIPDAQQDLLKALVKTGKPVVLLLFTGRPLILNWESEHIPSILNVWFGGSETGDAVADVLFGKAVPCGKLTTTFPRSVGQLPLFYNHLNTGRPDPDNRVFNRYASNYLDESNEPLYPFGYGLSYTDF | not failed |
| MSLGQQQVTLFWSGAITGPTSDAGAPYGAAVEDYCKWANERKLVPGVVFNCVVRDDQYNNANTQRFFEEAVDRFKIPVFLSYATGANLQLKPLIQELRIPTIPASMHIELIDPPNNDYIFLPTTSYSEQVVALLEYIAREKKGAKVALVVHPSPFGRAPVEDARKAARELGLQIVDVQEVGSGNLDNTALLKRFEQAGVEYVVHQNVAGPVANILKDAKRLGLKMRHLGAHYTGGPDLIALAGDAAEGFLWATSFYMAHEDTPGIRLQKEIGRKYGRPENFIESVNYTNGMLAAAIAVEAIRRAQERFKRITNETVYQAIVGMNGPNAFKPGFAVSTKQGVEIDFTKSEHTGAEGLRILEAKGGRFVPVTEPFTSALFRKVHYGEGHHHHHH | not failed |
| MRTPRRAPEPVQVVKQRRDATLRALVDGVPYIQFLGIEFERRGDELTGILPFDQKLIGNPLLPAIHGGVTAAFLEVTAIITLSWTYLWEDMESGAIDAKGLASGGMPRLPKTIDISTDYLRSGLPRDAYARARIVRSGRRYASVHVEAWQDNRDRLFAQATGHFLMPDRRDS | failed |
| MTKFYKFLISIIILALVCLIFFLAKSNILNLDSLKNLILSSGYFAPLIYIIAFALVPLTFFPDSILAILGGSIFGLGGGFLYTSIGALIGGSISFFISRILGQSFVEKFENDKLKNIQELLKDNGFLMILLLRLIPLFPFDLISYGAGLTKISYKDFALGTLIGTIPGILVFVNLGAQWITFNKTSIYLSVSLLILFIIVSVFLKKIYINKHLAKGN | failed |
| MKPVIQTFLRAAAVAGLALLAGCAGVSTTQSGAIGVDRTQYMSSLVPEQALVQEAGQQYAEIVQEARAKGLLDRDPAQLSRVRAISQRLIAQTGVFRADAANWPWEVHVLSVDEVNAWCMPGGKIAVYTGLLAHIKPTDDELAAVLGHEIAHALREHARERVSQQMATSIGLSVLSMATGSPGASDLGGKLTEVMFTLPNSRTHETEADRMGVELAARAGFDPRAAVTLWQKMGAADGNAPPEFLSTHPSASTRIGELQQALQKVLPLYEQARGQAAKLEHHHHHH | not failed |
| ADKFTFIGFLSKKDSEQKKQLEELMPLDSTLIFYESPFRVGKTLENVRAIFGEKTKVVLARELTKKFESYYRGDITQALNFIKSNRPRGEFVLLIKKIHEA | failed |
| MNFVELAKKRYSCRNYQDRKVEKEKLEKVLDVARIAPTGGNRQPQRLIVIQEKEGINKLSKAANIYDAPLAILVCGDKDKVWTRPFDGKQLTDIDTSIVTDHMMLQATELGLASVWVCYFNPDIIREEFSLPDNLEPINILLMGYESKIPESPERHEKTRVPLSEIVSYETL | failed |
| MGLEEELLRIAKKLEKMVSRKKTEGALDLLKKLNSCQMSIQLLQTTRIGVAVNGVRKHCSDKEVVSLAKVLIKNWKRLLDSPRTTKGERE | not failed |
| MYNPTAIAATNYQILPRRGKHKIFIGMAPGVGKTYRMLEEGHALKQDGVDVAIGLLEAHGREETTLKAEGLELIPRKQVYCRNVLLQEMDTEEILRRSPQLVLIDELAHTNIPGSKQEKRYQDVEKILNAGIDVYSTVNIQHLESLNDLVYRISGVVVRERIPDRIIDDADEIVVVDVTPETLQERLQEGKIYAPEKIDQALQNFFRRSNLIALRELALREIADNIEEESISETKNLHYNIRERVLVCISTYPNSIQLLRRGARIANHMNGQLFVLFVAPAGKFLSKSEALHIETCKRLCQEFTGEFLRIESPNIVTTIVKIATQERITQIVLGETRRSRFQLLFKGSIVQQLMRALPQVDIHIIANN | failed |
| MSFEAFTELYIRDVKTRLKENTWLTKEHIIRTKILPYFGKLRISEISTKEIITWQNELLAYRDEKKKPYSQTYLKTLHNQLSAIFNHAVRYYELRSNPAAKVGNMGSE | failed |
| PTLDSVEDGVLKKVVINISNSCNLSCSYCYADGGNYGMDNRIMDLTTADNIIQEIASKGVTQINRLILFGGEPFLNIELFIYFIEKLSTLLNVVKIETVTNGTVLNKRVKEMLVKFHPYLTISLDGPEIVHDRLRGRGSHRKTLRFINYLKNIDYE | failed |
| IEPEYFGEDAAENILIGWGSLEGAIKEAVNDLNKEGKEKYAALIFGDVWPLPEKLLREKASKAKTLIDVEQNAQGQLADIIREGTGIEVDKKILKYDGRPIMASYIVGRIKE | not failed |
| MAERLGILVGGGPAPGINSVISSVTIEAINNGLEVIGIYDGFKHLVEGKTNMVKKLSIEDVSRIHIEGGSILRTSRVNPAKSEETLEKTVQTLKKLGIKYLVTIGGDDTAFSASKVCERSKGEIKVVHVPKTIDNDLPLPENMPTFGFETARHVATELVYNLMQDSRTTNRWYFVAMMGREAGHLALGVGKAASATITIIPEEFKEGVTLEEVCDVLDGAILKRKLMGRDDGVAVIGEGIAEKMDPEELANIPGVIVEKDPHGHLRLAEIPLATILKRAIERRYAERGERIHIVDVTIGYELRSARPIPFDIVYTRTLGYGAVRFLLGDYSDLPGGMVCVVGGRIKILPFDAFMDPKTGRTKVRVVDVRSEDYRVARKYMIRLEKKDLEDPETLEKLAKLAKMEPEEFKKKYWHTTELP | failed |
| MKLRKRRLCAATGVVLGALTALAALPPAAVASPHPGGHPPTARRALPLGPAGLPERRTTTTLQPGVTLTRIVRGNAEDPALHWTVEVSIPGGDTSPDPDAPPTALKDRASADELAAELRRDGFEARVEEVTTPATADYRGGTLGWRVRIGTFDSQTAATAERTRLRAAGYSGSAVYTGWDGAATDRGPWHVDVLTIDPRTFRGTLDASYGPDLENRETTSALAASAAATAAVNAGFFVLDPRAGAPGDPAGVGVYDGRLLSEPVAGRPALVVHDDGRRTEIARLTWQGRIATRAASLPLNGVNRVPGLIRNCGGSAGDTPTSLPLHDVTCTNPDELVAFTPDYGGRTPGGEGMEAVLDAHERVVELRSPRGGTIPRGGSSVQATGERVADLTATARVGERLRVSATLLDDRGRRMSTSPGTDIVNAGPELVRDGRVHVTPATDGMVHPGDPSWYYGWVHKRNPRTVAGVDAAGRTVLVTADGRSTDSLGLSIGESAEVARSLGLRDAVNLDGGGSTTMVAEGAVLNSPSDAAGERPVGDALLILPHRHRTRS | failed |
| MGKKYEIFLNENEHSLITPKVSFKEILRYYYLYPKNAIPSFKLPFFKPDLSGFSTPHITWLGHSSLFISFKEYKILIDPIFNTHASPISFINKAFKNAPVYNINDFNEIFAVIITHSHFDHLDAKSVKALKDKAKFFITPLKVGNYLKSYGVSEKKIIELDWWSGIEFGDLKIMATPAQHSSSRGDGKNKTLWASFVMEFLSVDKRVFFSADGGYFTHFKKIGEYFGSFDLACLESGQFNIAWPYSHSFPEQILKEAKDLNAKAVMPIHWGRFLAGTHAWNEVVKFLYENLDLPLITPKMGEAYEVGAKLEHHHHHH | not failed |
| DRLRAFNHRLQNTPESVKVLRDWNMELDKNVTEVQGRIIGQQNIVFHNGKVPAGENADWQRHFRDQRMLTTPSDGLDRWAVIAPQRNSHELRTLLDSLYR | failed |
| MILVATKPKDSRGSSSDEMMMNDLDEIIFGENSLGHSSSASGNDQKKQKSSKNNELIHL | failed |
| MNAVGLVAFATVGSLKAIDADFDVLGVAVLGVLTALGGGATRDVLVGSVPAMLQSTTDVGFALAGVVVAVVVARRVGTEVLAHPVVDVPDAVGLAAFAASGALVGVGADVSPFGVVVLGTTTGVGGGLVSDVLLQRVPFVLTEDLYATCAIAGSTVLWVATASGLGATIAAAAGAGVTLAVRLLAIRFEWALPTVRLNAPA | failed |
| MIETTKGGSGSYPIKTIVVLVQENRSFDHTLGWFKELNREIDGVTKSDPKSNTVSSSDTNSLRVVFGDQSQYVNPDPGHSIQDIYEQVFGKPWDSGKPDPNPGHPNMSGFAQNAERNKKGMSSAVMNGFKPNALPVYKELVQNFAICDRWFASVPASTQPNRLYVHSATSHGATSNDKKLLLEGFPQKTIFESLDEAGFSFGIYYQFPPSTLFYRNLRKLKYLTHFHQYGIQFKKDCKEGKLPNYVVVEQRWFDLLSTPANDDHPSHDVSEGQKLVKEVYEALRSSPQWNEILFIITYDEHGGFYDHVPTPVDGVPNPDGILGPPPYNFEFNRLGVRVPTFFISPWIEPGTVIHGPNGPYPRSQYEHSSIPATVKTIFKLKDFLSKRDSWAGTFESVITRDSPRQDCPETLSTPIKLRGTMAKENAQLSEFQEDLVIMAAGLKGDYKNEELIHKLCKETCVADASKYVTNAFEKFLEESRKARDRGCDENDIVYCVDDDDDHVVIPPQSHSEASNAAAQPKTQTSFFNKLFSCFIRHD | failed |
| MKKALISTLFGVSLAFAKPYTIDKANSSVWFEVKHFTFNETRGAFDNFDGKIDLEPNTKMLSVFEGNIDVKSVNTRDRKRDNHLKTADFFDVVKYPKGSFKMTKYEDGKIYGDLTLRGVTKPVVLEAKIQAPLQNPMNKKEFMVLQAEGKINRKDFGIGKTFSDAVVGDEVKIELKLEAYAQ | failed |

From a protein production outcome set (Wang et al. 2014)
